# Measurements as given in patent US20230340081A1 (Hoffmann-La Roche, published 2023).
# T1: consensus S-HBs protein of HBV genotype E (ConsHBAg_E) (hepatitis B virus genotype E (consensus), UniProt Q69603 174-399)
# T1 construct: also called genotype E S-HBs
# T1 chain: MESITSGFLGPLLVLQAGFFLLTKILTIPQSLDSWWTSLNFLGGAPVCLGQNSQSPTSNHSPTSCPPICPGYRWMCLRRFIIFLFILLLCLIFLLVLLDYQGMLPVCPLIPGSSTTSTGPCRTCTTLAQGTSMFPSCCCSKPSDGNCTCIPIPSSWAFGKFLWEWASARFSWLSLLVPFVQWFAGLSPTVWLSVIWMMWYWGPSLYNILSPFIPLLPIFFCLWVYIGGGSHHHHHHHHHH
# T2: consensus S-HBs protein of HBV genotype I (ConsHBAg_I) (hepatitis B virus genotype I (consensus), UniProt P31873 175-400)
# T2 construct: also called genotype I S-HBs
# T2 chain: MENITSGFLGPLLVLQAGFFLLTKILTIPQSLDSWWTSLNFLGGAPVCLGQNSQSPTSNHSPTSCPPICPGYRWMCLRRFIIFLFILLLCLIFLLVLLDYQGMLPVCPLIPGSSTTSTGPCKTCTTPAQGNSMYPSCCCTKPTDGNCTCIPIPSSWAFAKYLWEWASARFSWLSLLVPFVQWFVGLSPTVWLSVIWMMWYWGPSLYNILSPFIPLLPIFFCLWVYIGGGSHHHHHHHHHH
# B1: Bc1.180 (antibody)
# heavy: not shown
# light: EIVLTQSPGTLSLSPGNRATLSCRASQSVTSNYFAWYQHKPGQAPRVLIYGASSRATGIPDRFSGSGSGTDFTLTISRLEPEDFAVYYCQQFGSLPYTFGQGTKLEIKRTVAAPSVFIFPPSDEQLKSGTASVVCLLNNFYPREAKVQWKVDNALQSGNSQESVTEQDSKDSTYSLSSTLTLSKADYEKHKVYACEVTHQGLSSPVTKSFNRGEC
# B2: Bc1.187 (antibody, human IgG1, kappa)
# heavy: not shown
# light: DIQMTQSPSSLSAYVGDRVTITCRASQRISTYLNWYHQRPGKSPSLLIYGASSLQSGVPSRFSASASGTDFTLTISSLRPEDLGTYYCQQTYTLPPNSGGGTKVEIKRTVAAPSVFIFPPSDEQLKSGTASVVCLLNNFYPREAKVQWKVDNALQSGNSQESVTEQDSKDSTYSLSSTLTLSKADYEKHKVYACEVTHQGLSSPVTKSFNRGEC
# notes: also called Bcl.187; Bc1.187_huIgG1_wt
# B3: Bc1.128 (antibody)
# heavy: not shown
# light: DIQLTQSPSSLSASVGDRVTITCRASQGIRSDLGWYQQKPGKAPKRLIYGASNLQRGVPSRFSGSGSGTEFTLTISSLQPEDFASYYCLQHNSFPWTFGQGTKVEIKRTVAAPSVFIFPPSDEQLKSGTASVVCLLNNFYPREAKVQWKVDNALQSGNSQESVTEQDSKDSTYSLSSTLTLSKADYEKHKVYACEVTHQGLSSPVTKSFNRGEC
# B4: Bc3.106 (antibody)
# heavy: not shown
# light: DIQMTQSPSSLSASVGDRVTITCRASQGIRNDLGWYQQKPGKAPKRLIYAASSLQSGVPSRFSGSGSGTEFTLTISSLQPEDFATYYCLQHNSYPRTFGQGTKVEIKRTVAAPSVFIFPPSDEQLKSGTASVVCLLNNFYPREAKVQWKVDNALQSGNSQESVTEQDSKDSTYSLSSTLTLSKADYEKHKVYACEVTHQGLSSPVTKSFNRGEC
# How the values were obtained:
# [1] = biological target: HBV genotype D viruses (produced in HepG2.2.15 cell culture supernatant) (hepatitis B virus genotype D); assay: cell-based or functional assay
# [2] = biological target: T1, consensus S-HBs protein of HBV genotype …; assay: flow cytometry, S-HBs-transfected 293-F cells
# [3] = biological target: T3, consensus S-HBs protein of HBV genotype C (ConsHBAg_C) (hepatitis B virus genotype C (consensus), UniProt P03140 175-400); assay: flow cytometry, S-HBs-transfected 293-F cells
# T3 construct: also called genotype C S-HBs
# [4] = biological target: genotype D S-HBs mutant protein Y134V (hepatitis B virus genotype D, UniProt P03138 164-389); assay: flow cytometry, S-HBs-transfected 293-F cells
# [5] = biological target: T4, consensus S-HBs protein of HBV genotype G (ConsHBAg_G) (hepatitis B virus genotype G (consensus), UniProt Q9IBI3 174-399); assay: flow cytometry, S-HBs-transfected 293-F cells
# T4 construct: also called genotype G S-HBs
# [6] = biological target: T5, consensus S-HBs protein of HBV genotype A (ConsHBAg_A) (hepatitis B virus genotype A (consensus), UniProt P03141 175-400); assay: flow cytometry, S-HBs-transfected 293-F cells
# T5 construct: also called genotype A S-HBs
# [7] = biological target: T6, consensus S-HBs protein of HBV genotype B (ConsHBAg_B) (hepatitis B virus genotype B (consensus), UniProt Q9PWW3 175-400); assay: flow cytometry, S-HBs-transfected 293-F cells
# T6 construct: also called genotype B S-HBs
# [8] = biological target: genotype D S-HBs mutant protein M133T (hepatitis B virus genotype D, UniProt P03138 164-389); assay: flow cytometry, S-HBs-transfected 293-F cells
# [9] = biological target: genotype D S-HBs mutant protein T126A (hepatitis B virus genotype D, UniProt P03138 164-389); assay: flow cytometry, S-HBs-transfected 293-F cells
# [10] = biological target: T7, consensus S-HBs protein of HBV genotype D (ConsHBAg_D) (hepatitis B virus genotype D (consensus), UniProt P03138 164-389); assay: flow cytometry, S-HBs-transfected 293-F cells
# T7 construct: also called genotype D S-HBs; ConsD S-HBs
# [11] = biological target: T8, consensus S-HBs protein of HBV genotype H (ConsHBAg_H) (hepatitis B virus genotype H (consensus), UniProt Q8JMZ6 175-400); assay: flow cytometry, S-HBs-transfected 293-F cells
# T8 construct: also called genotype H S-HBs
# [12] = biological target: T2, consensus S-HBs protein of HBV genotype …; assay: flow cytometry, S-HBs-transfected 293-F cells
# [13] = biological target: T9, consensus S-HBs protein of HBV genotype F (ConsHBAg_F) (hepatitis B virus genotype F (consensus), UniProt Q05496 175-400); assay: flow cytometry, S-HBs-transfected 293-F cells
# T9 construct: also called genotype F S-HBs
# [14] = biological target: genotype D S-HBs mutant protein N146S (hepatitis B virus genotype D, UniProt P03138 164-389); assay: flow cytometry, S-HBs-transfected 293-F cells
# [15] = biological target: genotype D S-HBs mutant protein G145R (hepatitis B virus genotype D, UniProt P03138 164-389); assay: flow cytometry, S-HBs-transfected 293-F cells
# [16] = biological target: T10, Ayw S-HBs protein (ayw HBsAg particles, Engerix-B (Ayw)) (hepatitis B virus, ayw subtype); assay: ELISA, AUC of binding curve; design: unit not given beside the values
# [17] = biological target: T11, Adw S-HBs protein (adw HBsAg particles, GenHevac (Adw)) (hepatitis B virus, adw subtype); assay: ELISA, AUC of binding curve; design: unit not given beside the values
# T11 construct: also called GenHevac-B
# [18] = biological target: T10, Ayw S-HBs protein (ayw HBsAg particles, …); assay: ELISA on recombinant HBV vaccine particles
# [19] = biological target: T11, Adw S-HBs protein (adw HBsAg particles, …); assay: ELISA on recombinant HBV vaccine particles
# T9 sequence (Q05496 175-400, tags left off): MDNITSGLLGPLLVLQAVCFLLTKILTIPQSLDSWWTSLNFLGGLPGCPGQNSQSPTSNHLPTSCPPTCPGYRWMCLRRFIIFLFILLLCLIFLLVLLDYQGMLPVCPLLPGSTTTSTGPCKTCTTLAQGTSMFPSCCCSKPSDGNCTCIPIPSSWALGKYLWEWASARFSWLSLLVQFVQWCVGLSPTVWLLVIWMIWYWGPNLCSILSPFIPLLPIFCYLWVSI
# T8 sequence (Q8JMZ6 175-400, tags left off): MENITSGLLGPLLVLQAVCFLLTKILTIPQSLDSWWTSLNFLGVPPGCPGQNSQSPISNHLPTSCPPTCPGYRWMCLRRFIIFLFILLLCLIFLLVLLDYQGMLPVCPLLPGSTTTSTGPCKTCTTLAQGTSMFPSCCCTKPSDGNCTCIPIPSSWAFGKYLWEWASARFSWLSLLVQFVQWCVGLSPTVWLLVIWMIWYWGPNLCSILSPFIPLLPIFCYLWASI
Binder,HBV-gD in vitro neutralization (IC50 µg/ml) [1] [µg/mL],% of bound S-HBs-expressing cells [2] [%],% of bound S-HBs-expressing cells [3] [%],% of bound S-HBs-expressing cells [4] [%],% of bound S-HBs-expressing cells [5] [%],% of bound S-HBs-expressing cells [6] [%],% of bound S-HBs-expressing cells [7] [%],% of bound S-HBs-expressing cells [8] [%],% of bound S-HBs-expressing cells [9] [%],% of bound S-HBs-expressing cells [10] [%],% of bound S-HBs-expressing cells [11] [%],% of bound S-HBs-expressing cells [12] [%],% of bound S-HBs-expressing cells [13] [%],% of bound S-HBs-expressing cells [14] [%],% of bound S-HBs-expressing cells [15] [%],AUC (serotype binding) [16],AUC (serotype binding) [17],EC50 [18] [ng/mL],EC50 [19] [ng/mL]
B1,5e-08,46,43,25,39,57,45,25,38,47,55,22,42,27,14,23,30,310,65.3
B2,5e-08,66,67,57,64,73,70,52,60,66,59,54,58,48,17,35,36,3.5,4.9
B3,0.000544,65,67,47,58,64,67,48,53,64,59,47,58,46,0,37,35,5.7,7.2
B4,1.39e-07,59,83,69,65,70,55,66,71,62,59,53,55,63,67,37,36,19.3,42.1
